Experimental data from article PMC9482650, “Quantitative fragmentomics allow affinity mapping of interactomes” (Nature Communications, 2022).

T1: SNTG2, Q9NY99
T1 sequence (Q9NY99 68-166, limits assumed, looked up): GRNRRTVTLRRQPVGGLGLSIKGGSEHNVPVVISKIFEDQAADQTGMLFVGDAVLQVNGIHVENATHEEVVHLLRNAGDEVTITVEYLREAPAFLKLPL

B1: HPV18-E6_-2P, P06463 (peptide)
chain: RLQRRRETQV
B2: SLC45A4, Q5BKX6 (peptide)
chain: QGPVETESVV
B3: EPHB3, P54753 (peptide)
chain: QMNQTLPVQV
B4: NLGN4X, Q8N0W4 (peptide)
chain: LPHGHSTTRV
B5: TRAF7, Q6Q0C0 (peptide)
chain: VDSTVKVWTC
B6: ATP2A2, P16615;P16615-3 (peptide)
chain: YLEPVLSSEL
B7: NOSTRIN, Q8IVI9 (peptide)
chain: SNAGNTATKA
B8: ASNSD1, Q9NWL6 (peptide)
chain: NLSIEKETKL
B9: BPIFA2, Q96DR5 (peptide)
chain: QHKTQLQTLI
B10: TRIM29, Q14134;Q14134-2 (peptide)
chain: KSGKQTMLVV
B11: TRPC5, Q9UL62 (peptide)
chain: GQEEQVTTRL
B12: AQP6, Q13520 (peptide)
chain: GSGAVEMESV
B13: SLC2A7, Q6PXP3 (peptide)
chain: TASPAKETSF
B14: PLEKHA2, Q9HB19 (peptide)
chain: DDENIRTSDV
B15: ABCC6, O95255 (peptide)
chain: YRLAQESGLV
B16: KCNJ1, P48048 (peptide)
chain: EVNETDDTKM
B17: JAG1, P78504 (peptide)
chain: QSLNRMEYIV
B18: KIF17, Q9P2E2 (peptide)
chain: SKSNFGSEPL
B19: NLGN2, Q8NFZ4 (peptide)
chain: LPHPHSTTRV
B20: ADAM22, Q9P0K1 (peptide)
chain: QSARLWETSI
B21: CLDN2, P57739 (peptide)
chain: FNSYSLTGYV
B22: ABCA7, Q8IZY2 (peptide)
chain: DDPSTAETVL
B23: ERBB2, P04626 (peptide)
chain: PEYLGLDVPV
B24: ACTN2, P35609 (peptide)
chain: SSALYGESDL
B25: SDC4, P31431 (peptide)
chain: KKAPTNEFYA
B26: CAVIN3, Q969G5 (peptide)
chain: EALLQMESVA
B27: BAZ1A, Q9NRL2 (peptide)
chain: TPPAAKKSRI
B28: GHRHR, Q02643 (peptide)
chain: SAAKVLTSMC
B29: SLC22A12, Q96S37 (peptide)
chain: GNSVLKSTQF
B30: CES3, Q6UWW8 (peptide)
chain: QKNRKAQEDL
B31: CRB2, Q5IJ48 (peptide)
chain: LKVPPEERLI
B32: DACT1, Q9NYF0 (peptide)
chain: SGSLKLMTTV
B33: GRIN2A, Q12879 (peptide)
chain: KKMPSIESDV
B34: GRIN2C, Q14957 (peptide)
chain: RRISSLESEV
B35: LPXN, O60711 (peptide)
chain: QPCFNKLFPL
B36: EFNB1, P52799 (peptide)
chain: QSPANIYYKV
B37: TBC1D10A, Q9BXI6 (peptide)
chain: TSQESEDTYL
B38: ERBB4, Q15303 (peptide)
chain: PPYRHRNTVV
B39: LRRC4B, Q9NT99 (peptide)
chain: SKENVQETQI
B40: RNF146, Q9NTX7 (peptide)
chain: PDGQCTVTEV
B41: CTNNA1, P35221 (peptide)
chain: LSEFKAMDSI
B42: ZNF831, Q5JPB2 (peptide)
chain: DDEDRLVIEI
B43: GPRC6A, Q5T6X5 (peptide)
chain: TLPRKRMSSI
B44: MYOZ1, Q9NP98 (peptide)
chain: IPLDGETEEL
B45: FLVCR1, Q9Y5Y0 (peptide)
chain: MLSKQSESAI
B46: KCNA1, Q09470 (peptide)
chain: VNKSKLLTDV
B47: PRKD2, Q9BZL6 (peptide)
chain: QGLAERISVL
B48: RASL11B, Q9BPW5 (peptide)
chain: SAKVRTVTSV
B49: RSRC2, Q7L4I2 (peptide)
chain: TSSMRGMDAV
B50: SAPCD1, Q5SSQ6 (peptide)
chain: TKGPRGPTRV
B51: DGKH, Q86XP1 (peptide)
chain: LGRSTPQSEV
B52: RAB9A, P51151 (peptide)
chain: RKPKPSSSCC
B53: ACOT8, O14734 (peptide)
chain: VKPQVSESKL
B54: TMEM225B, P0DP42 (peptide)
chain: ETQVTAETVI
B55: IQSEC2, Q5JU85 (peptide)
chain: AKPSRISTVV
B56: GOT1L1, Q8NHS2 (peptide)
chain: EKKTLIGIKL
B57: TMEM151B, Q8IW70 (peptide)
chain: RHGSCVETSL
B58: TRAF2, Q12933 (peptide)
chain: IKAIVDLTGL
B59: TGFA, P01135 (peptide)
chain: TACCHSETVV
B60: CLDN1, O95832 (peptide)
chain: PAPSSGKDYV
B61: TRMT13, Q9NUP7 (peptide)
chain: NHSSSPETTA
B62: BANF1, O75531 (peptide)
chain: CLREWCDAFL
B63: CLDN14, O95500 (peptide)
chain: HSGYRLNDYV
B64: HCN2, Q9UL51 (peptide)
chain: SARSRLSSNL
B65: TANC1, Q9C0D5 (peptide)
chain: PKRSFIESNV
B66: MMP24, Q9Y5R2 (peptide)
chain: YYKRPVQEWV
B67: TRPV3, Q8NET8 (peptide)
chain: EVEEFPETSV
B68: CCDC134, Q9H6E4 (peptide)
chain: PRISRSQSEL
B69: MYOZ3, Q8TDC0 (peptide)
chain: VRNLPESEEL
B70: MYOZ2, Q9NPC6 (peptide)
chain: DTTVPESEDL
B71: PDGFRB, P09619 (peptide)
chain: PRAEAEDSFL
B72: GJD4, Q96KN9 (peptide)
chain: HLRARKSEWV

These binders were tested against T1, SNTG2, Q9NY99 (assay: holdup assay). Settings: modified: phospho on T at position -2 from the C-terminal residue.
Set-up: key: below the threshold = too weak to quantify, mostly under pKd 3.1 to 4
In the case of B1, the pKd is reported as “below the threshold”.

Same assay, conditions: plain residues with an end cap or a label only (N-terminal biotin on a linker: ado-ado)
B2 showed a pKd of 4.34. In the case of B3, the pKd is reported as “below the threshold”. Binder B4 has a pKd of 4. B5 gave a pKd of 3.49. With B6 the pKd was “below the threshold”. With B7 the pKd was “below the threshold”. B8 gave a pKd of 4.95. In the case of B9, the pKd is reported as 3.63. In the case of B10, the pKd is reported as “below the threshold”. Binder B11 has a pKd of 4.44. With B12 the pKd was “below the threshold”. With B13 the pKd was “below the threshold”. With B14 the pKd was 4.08. Binder B15 has a pKd of 3.61. B16 was tested, and the pKd was “below the threshold”. In the case of B17, the pKd is reported as “below the threshold”. For B18, the pKd was “below the threshold”. For B19, the pKd was 4.16. Binder B20 has a pKd of 4.86. For B21, the pKd was “below the threshold”. With B22 the pKd was 4.19. For B23, the pKd was “below the threshold”. B24 was tested, and the pKd was “below the threshold”. With B25 the pKd was “below the threshold”. For B26, the pKd was “below the threshold”. B27 was tested, and the pKd was “below the threshold”. B28 was tested, and the pKd was “below the threshold”. In the case of B29, the pKd is reported as “below the threshold”. With B30 the pKd was “below the threshold”. With B31 the pKd was “below the threshold”. B32 gave a pKd of 3.66. For B33, the pKd was 4.41. For B34, the pKd was 4.24. In the case of B35, the pKd is reported as “below the threshold”. For B36, the pKd was “below the threshold”. For B37, the pKd was “below the threshold”. With B38 the pKd was 3.89. Binder B39 has a pKd of 4.81. Work on B40 yielded a pKd of 3.98. With B41 the pKd was “below the threshold”. For B42, the pKd was “below the threshold”. With B43 the pKd was “below the threshold”. In the case of B44, the pKd is reported as “below the threshold”. B45 gave a pKd of 3.81. B46 was tested, and the pKd was “below the threshold”. B47 was tested, and the pKd was 3.66. B48 gave a pKd of 3.6. With B49 the pKd was “below the threshold”. B50 gave a pKd of 4.18. For B51, the pKd was “below the threshold”. For B52, the pKd was “below the threshold”. B53 was tested, and the pKd was 4.19. With B54 the pKd was 4.15. In the case of B55, the pKd is reported as “below the threshold”. With B56 the pKd was “below the threshold”. B57 showed a pKd of 4.8. B58 was tested, and the pKd was “below the threshold”. B59 showed a pKd of 4.38. For B60, the pKd was “below the threshold”. With B61 the pKd was “below the threshold”. For B62, the pKd was “below the threshold”. B63 was tested, and the pKd was “below the threshold”. B64 was tested, and the pKd was “below the threshold”. B65 was tested, and the pKd was 4.71. B66 was tested, and the pKd was “below the threshold”. B67 showed a pKd of 5.05. For B68, the pKd was “below the threshold”. With B69 the pKd was “below the threshold”. In the case of B70, the pKd is reported as “below the threshold”. With B71 the pKd was “below the threshold”. B72 was tested, and the pKd was “below the threshold”.
